Assay results as given in patent publication US20110262929A1 (FORERUNNER PHARMA RESEARCH, published 2011).

T1: secreted HS6ST2 (sHS6ST2_FLAG) (human, UniProt Q96MM7 170-605)
T1 construct: Purified from CHO supernatant on anti-FLAG gel; also called soluble HS6ST2
T1 sequence: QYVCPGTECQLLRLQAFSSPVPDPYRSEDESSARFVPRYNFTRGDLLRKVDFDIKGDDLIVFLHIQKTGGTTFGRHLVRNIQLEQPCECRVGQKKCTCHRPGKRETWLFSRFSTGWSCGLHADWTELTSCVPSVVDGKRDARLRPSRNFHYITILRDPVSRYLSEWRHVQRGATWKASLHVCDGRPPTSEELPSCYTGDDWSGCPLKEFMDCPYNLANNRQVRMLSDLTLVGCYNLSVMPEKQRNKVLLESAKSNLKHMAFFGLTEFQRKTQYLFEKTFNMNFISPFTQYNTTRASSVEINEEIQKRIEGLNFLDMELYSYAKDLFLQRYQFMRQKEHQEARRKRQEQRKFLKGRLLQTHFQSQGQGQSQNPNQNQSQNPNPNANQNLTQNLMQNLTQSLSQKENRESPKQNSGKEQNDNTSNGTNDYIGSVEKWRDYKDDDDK

T2: GST_HS6ST2_C1 (human, UniProt Q96MM7 454-539)
T2 construct: Expressed in E. coli BL21 (DE3); whole cell lysate blotted after SDS-PAGE; also called GST fusion of amino acids 308-393 of HS6ST2_N-short; not shown: N-terminal glutathione S-transferase (GST) of vector pGEX-6P-1, with the vector's linker
T2 sequence: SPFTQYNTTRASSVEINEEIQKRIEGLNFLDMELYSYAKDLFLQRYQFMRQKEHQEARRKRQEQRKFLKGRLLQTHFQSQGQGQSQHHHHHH

T3: GST_HS6ST2_C2 (human, UniProt Q96MM7 525-605)
T3 construct: Expressed in E. coli BL21 (DE3); whole cell lysate blotted after SDS-PAGE; also called GST fusion of amino acids 379-459 of HS6ST2_N-short; not shown: N-terminal glutathione S-transferase (GST) of vector pGEX-6P-1, with the vector's linker
T3 sequence: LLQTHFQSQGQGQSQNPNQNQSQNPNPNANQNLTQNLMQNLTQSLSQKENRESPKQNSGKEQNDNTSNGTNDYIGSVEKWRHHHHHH


Key:
[1] = biological target: T1, secreted HS6ST2 (sHS6ST2_FLAG); test: sandwich ELISA: A6 coated at 5 µg/mL as capture, B5-biotin and C8-biotin (3 µg/mL each, mixed) as detectors
GST_HS6ST2_C1 = biological target: T2, GST_HS6ST2_C1; test: Western blot of E. coli whole cell lysate, antibody 10 µg/mL
Experimental: (§1) GST_HS6ST2_N, GST_HS6ST2_mid, GST_HS6ST2_C, GST_HS6ST2_C1 and GST_HS6ST2_C2 were expressed in BL21 (DE3) Competent Cells (Takara Bio), and the whole cell lysates were resolved by SDS-PAGE electrophoresis and then transferred to PVDF membranes (Immobilon-P, Millipore) and Western blotted with the anti-HS6ST2 antibodies. The anti-HS6ST2 antibodies were used at 10 μg/mL, while the secondary antibody (HRP-anti mIgG, GE Healthcare) was used as a 3000-fold dilution, and blots were detected with ECL Western Blotting Detection Reagents (GE Healthcare). As a result, the anti-HS6ST2 antibodies A1, A10, B5, B6 and C8 bound to GST_HS6ST2_C2, A6 bound to GST_HS6ST2_C1, and C10 bound to GST_HS6ST2_N.

GST_HS6ST2_C2 = biological target: T3, GST_HS6ST2_C2; test: as above
Experimental: as §1

[2] = biological target: T1, secreted HS6ST2 (sHS6ST2_FLAG); test: flow cytometry: sHS6ST2_FLAG (50 µg/mL) held on heparan sulfate of DG44 cells, detected with C8 as primary antibody
Experimental: Each anti-HS6ST2 antibody or mouse IgG1 (mIgG1, BD Biosciences Pharmingen) as a negative control was added to a final concentration of 2 μg/mL into 96-well U-bottom plates (Becton Dickinson) containing 5×10⁴ cells suspended in PBS (FACS buffer) supplemented with 0.5% bovine serum albumin and 0.1% NaN₃. After reaction on ice for 1 hour, the cells were washed with FACS buffer. Then, an FITC-labeled anti-mouse antibody (Goat F(ab′)₂ Fragment Anti-mouse IgG (H+L)-FITC, Beckman Coulter) was added as a secondary antibody, and the mixture was reacted on ice for 1 hour. The cells were washed with FACS buffer, and then suspended in FACS buffer containing 10 μg/mL propidium iodide (PI) (Sigma) and assayed by a flow cytometer (FACS Calibur, Becton Dickinson). The assay data were analyzed by CELLQuest software (Becton Dickinson), and the geo-mean of FITC fluorescent intensity was calculated for the PI-negative population of viable cells.
Then, binding of soluble HS6ST2 (sHS6ST2_FLAG) to DG44 cells was evaluated. DG44 cells were enzymatically treated, and then reacted with sHS6ST2_FLAG prepared at 50 μg/mL in FACS buffer at 4° C. for 3 hours. After washing, the cells were analyzed by flow cytometry in the same manner as in Example 3. The anti-HS6ST2 antibody C8 was used as a primary antibody and mIgG1 (BD Biosciences Pharmingen) was used as a negative control. […]

Row | binding result [1] | binding result (GST_HS6ST2_C1) | binding result (GST_HS6ST2_C2) | binding result [2] | Binder
1 | binds | binds | – | – | anti-HS6ST2 antibody A6 (antibody, mouse IgG1, V domains shown, also called clone A6) VH: EVQLQQSGAELVRSGASVKLSCTASGFNIKDYYMHWVKQRPEQGLEWIGWIDPENDDTEYAPKFQGRATMTADTSSNTAYLQLSSLTSEDTAVYYCNAGYYGSGFAYWGQGTLVTVSA VL: DIVMTQSPSSLTVTAGEKVTMRCKSSQSLLNSGNQKNYLTWYQQKPGQPPRLLIYWASIRESGVPDRFTGSGSGTDFTLTISSVQAEDLAVYYCQNDYSYPLTFGTGTKLELK
2 | – | – | binds | binds | anti-HS6ST2 antibody C8 (antibody, mouse IgG1, V domains shown, also called clone C8; C8-biotin) VH: EVQLQQSGAELVRSGASVKLSCTASGFNIKDYYMHWVKQRPEQGLEWIGWIDPDNDDTEYAPKFQGKATMTADTSSNTAYLQLSSLTSEDTAVYYCNAGNGNYWFAYWGQGTLVTVSA VL: DVVMTQTPLSLPVSLGDQASISCRSSQSLVHSNGNTYLHWNLQKPGQSPKLLIYKVSNRFSGVPDRFSGSGSGTDFTLKISRVEAEDLGVYFCSQTTLVPYTFGGGTKLEIK
